This is an account of results in the supplement of paper PMC11246515.

± gives the standard deviation of the averaged measurements.

A short description of this data set: total protein half-life in vivo (active degradation + dilution); higher = more stable protein.
Setting [1] is: E. coli NCM3722 delta-clpP delta-lon delta-hslV, growth: N-lim chemostat, doubling time 6 h.
Setting [2] is: E. coli NCM3722 delta-clpP, growth: N-lim chemostat, doubling time 6 h.
The mark [3] stands for this setting: E. coli NCM3722 delta-hslV, growth: N-lim chemostat, doubling time 6 h.
[4] abbreviates: E. coli NCM3722 delta-smpB, growth: N-lim chemostat, doubling time 6 h.
Where [5] appears, read: wild type E. coli NCM3722, growth: N-lim chemostat, doubling time 6 h.
[6] abbreviates: wild type E. coli NCM3722, growth: N-lim chemostat, doubling time 12 h.
Setting [7] is: wild type E. coli NCM3722, growth: P-lim chemostat, doubling time 6 h.
Where [8] appears, read: wild type E. coli NCM3722, growth: P-lim chemostat, doubling time 12 h.
The mark [9] stands for this setting: E. coli NCM3722 delta-lon, growth: N-lim chemostat, doubling time 6 h.
The mark [10] stands for this setting: wild type E. coli NCM3722, growth: C-lim chemostat, doubling time 3 h.
Setting [11] is: wild type E. coli NCM3722, growth: C-lim chemostat, doubling time 6 h.
[12] abbreviates: wild type E. coli NCM3722, growth: C-lim chemostat, doubling time 12 h.

“MQQPVVRVGEWLVTPSINQISRNGRQLTLEPRLIDLLVFFAQHSGEVLSRDELIDNVWKRSIVTNHVVTQSISELRKSLKDNDEDSPVYIATVPKRGYKLMVPVIWYSEEEGEEIMLSSPPPIPEAVPATDSPSHSLNIQNTATPPEQSPVKSKRFTTFWVWFFFLLSLGICVALVAFSSLDTRLPMSKSRILLNPRDIDINMVNKSCNSWSSPYQLSYAIGVGDLVATSLNTFSTFMVHDKINYNIDEPSSSGKTLSIAFVNQRQYRAQQCFMSIKLVDNADGSTMLDKRYVITNGNQLAIQNDLLESLSKALNQPWPQRMQETLQKILPHRGALLTNFYQAHDYLLHGDDKSLNRASELLGEIVQSSPEFTYARAEKALVDIVRHSQHPLDEKQLAALNTEIDNIVTLPELNNLSIIYQIKAVSALVKGKTDESYQAINTGIDLEMSWLNYVLLGKVYEMKGMNREAADAYLTAFNLRPGANTLYWIENGIFQTSVPYVVPYLDKFLASE”: the “total protein half-life in vivo” value is, setting by setting: under setting [1], 5.6 ± 0.59 h; under setting [2], 5.47 ± 0.86 h; under setting [3], 5.65 ± 0.78 h; under setting [4], 5.484 ± 0.022 h; under setting [5], 5.06 ± 0.32 h; under setting [6], 12.73 ± 0.03 h. Moreover, the “total protein half-life in vivo” value came out at 6.18 ± 0.23 h under setting [7] and 12.08 ± 0.11 h under setting [8].

Take “MSNKPFHYQAPFPLKKDDTEYYLLTSEHVSVSEFEGQEILKVAPEALTLLARQAFHDASFMLRPAHQQQVADILRDPEASENDKYVALQFLRNSDIAAKGVLPTCQDTGTAIIVGKKGQRVWTGGGDEAALARGVYNTYIEDNLRYSQNAPLDMYKEVNTGTNLPAQIDLYAVDGDEYKFLCIAKGGGSANKTYLYQETKALLTPGKLKNYLVEKMRTLGTAACPPYHIAFVIGGTSAETNLKTVKLASAKYYDELPTEGNEHGQAFRDVELEKELLIEAQNLGLGAQFGGKYFAHDIRVIRLPRHGASCPVGMGVSCSADRNIKAKINRQGIWIEKLEHNPGKYIPEELRKAGEGEAVRVDLNRPMKEILAQLSQYPVSTRLSLNGTIIVGRDIAHAKLKERMDNGEGLPQYIKDHPIYYAGPAKTPEGYASGSLGPTTAGRMDSYVDQLQAQGGSMIMLAKGNRSQQVTDACKKHGGFYLGSIGGPAAVLAQGSIKSLECVEYPELGMEAIWKIEVEDFPAFILVDDKGNDFFQQIQLTQCTRCVK [P0AC33]”: the “total protein half-life in vivo” value under setting [1] turned out to be 4.02 ± 1.1 h; the “total protein half-life in vivo” value under setting [2] came out at 2.82 ± 0.17 h; the “total protein half-life in vivo” value under setting [3] worked out at 2.53 ± 0.47 h; the “total protein half-life in vivo” value under setting [9] came to 2.86 ± 0.043 h; the “total protein half-life in vivo” value under setting [4] came out at 2.36 ± 0.071 h; the “total protein half-life in vivo” value under setting [10] came to 3.13 ± 0.2 h. For the same sequence, the “total protein half-life in vivo” value was determined as 4.39 ± 0.14 h under setting [11]; 7.67 ± 1.4 h under setting [12]; 2.51 ± 0.22 h under setting [5]; 3.37 ± 0.11 h under setting [6]; 5.02 ± 0.12 h under setting [7]; 8.932 ± 0.051 h under setting [8].

With “MRYPVTLTPAPEGGYMVSFVDIPEALTQGETVAEAMEAAKDALLTAFDFYFEDNELIPLPSPLNSHDHFIEVPLSVASKVLLLNAFLQSEITQQELARRIGKPKQEITRLFNLHHATKIDAVQLAAKALGKELSLVMV”, the “total protein half-life in vivo” value was determined as 1.45 h under setting [7] and 3.2 ± 0.94 h under setting [8].

Regarding “MRIGIDLGGTKTEVIALGDAGEQLYRHRLPTPRDDYRQTIETIATLVDMAEQATGQRGTVGMGIPGSISPYTGVVKNANSTWLNGQPFDKDLSARLQREVRLANDANCLAVSEAVDGAAAGAQTVFAVIIGTGCGAGVAFNGRAHIGGNGTAGEWGHNPLPWMDEDELRYREEVPCYCGKQGCIETFISGTGFAMDYRRLSGHALKGSEIIRLVEESDPVAELALRRYELRLAKSLAHVVNILDPDVIVLGGGMSNVDRLYQTVGQLIKQFVFGGECETPVRKAKHGDSSGVRGAAWLWPQE”, the “total protein half-life in vivo” value runs as follows: under setting [1], 5.21 ± 0.15 h; under setting [2], 5.38 ± 0.09 h; under setting [3], 6.33 ± 1.9 h; under setting [9], 5.67 ± 0.31 h; under setting [4], 5.3 ± 0.66 h; under setting [10], 2.8 ± 0.4 h. Besides, the “total protein half-life in vivo” value is 5.8 ± 0.29 h under setting [11]; 11.8 ± 2.8 h under setting [12]; 5.18 ± 0.18 h under setting [5]; 9.94 ± 4 h under setting [6]; 6.21 ± 0.56 h under setting [7]; 11.7 ± 0.5 h under setting [8].

As for “MSNTPIELKGSSFTLSVVHLHEAEPKVIHQALEDKIAQAPAFLKHAPVVLNVSALEDPVNWSAMHKAVSATGLRVIGVSGCKDAQLKAEIEKMGLPILTEGKEKAPRPAPTPQAPAQNTTPVTKTRLIDTPVRSGQRIYAPQCDLIVTSHVSAGAELIADGNIHVYGMMRGRALAGASGDRETQIFCTNLMAELVSIAGEYWLSDQIPAEFYGKAARLQLVENALTVQPLN”, the “total protein half-life in vivo” value is 5.53 ± 0.29 h under setting [1]; 5 ± 0.28 h under setting [2]; 5.32 ± 0.053 h under setting [3]; 5.84 ± 0.27 h under setting [9]; 4.34 ± 0.23 h under setting [4]; 2.977 ± 0.015 h under setting [10]. The “total protein half-life in vivo” value by setting is: under setting [11], 5.72 ± 0.27 h; under setting [12], 9.85 ± 0.83 h; under setting [5], 5.25 ± 0.7 h; under setting [6], 8.75 ± 0.6 h; under setting [7], 5.44 ± 0.24 h; under setting [8], 11.2 ± 1 h.

For “MKNLIAELLFKLAQKEEESKELCAQVEALEIIVTAMLRNMAQNDQQRLIDQVEGALYEVKPDASIPDDDTELLRDYVKKLLKHPRQ [P0AAN9]”, the “total protein half-life in vivo” value by setting is: under setting [2], 3.74 ± 0.97 h; under setting [3], 4.38 ± 0.94 h; under setting [9], 6.09 ± 1.4 h; under setting [4], 4.195 ± 0.0044 h; under setting [10], 3.54 ± 0.59 h; under setting [11], 4.96 ± 0.47 h. In addition, the “total protein half-life in vivo” value was determined as 7.25 ± 1.9 h under setting [12]; 3.43 ± 0.67 h under setting [5]; 8.18 ± 5.6 h under setting [6]; 4.02 ± 1.8 h under setting [7]; 10.1 ± 0.93 h under setting [8].

Turning to “MIFSDWPWRHWRQVRGETIALRLNDEQLNWRELCARVDELASGFAVQGVVEGSGVMLRAWNTPQTLLAWLALLQCGARVLPVNPQLPQPLLEELLPNLTLQFALVPDGENTFPALTSLHIQLVEGAHAATWQPTRLCSMTLTSGSTGLPKAAVHTYQAHLASAQGVLSLIPFGDHDDWLLSLPLFHVSGQGIMWRWLYAGARMTVRDKQPLEQMLAGCTHASLVPTQLWRLLVNRSSVSLKAVLLGGAAIPVELTEQAREQGIRCFCGYGLTEFASTVCAKEADGLADVGSPLPGREVKIVNNEVWLRAASMAEGYWRNGQLVSLVNDEGWYATRDRGEMHNGKLTIVGRLDNLFFSGGEGIQPEEVERVIAAHPAVLQVFIVPVADKEFGHRPVAVMEYDHESVDLSEWVKDKLARFQQPVRWLTLPPELKNGGIKISRQALKEWVQRQQ”, the “total protein half-life in vivo” value was 4.96 h under setting [2]; 3.92 h under setting [3]; 3.2 h under setting [10]; over 8 h under setting [11]; 11.3 ± 1.4 h under setting [12]; 4.4 h under setting [5]. Besides, the “total protein half-life in vivo” value reads like this: under setting [7], 6.327 ± 0.016 h; under setting [8], 10.3 ± 1 h.

On to “MIDFGNFYSLIAKNHLSHWLETLPAQIANWQREQQHGLFKQWSNAVEFLPEIKPYRLDLLHSVTAESEEPLSAGQIKRIETLMRNLMPWRKGPFSLYGVNIDTEWRSDWKWDRVLPHLSDLTGRTILDVGCGSGYHMWRMIGAGAHLAVGIDPTQLFLCQFEAVRKLLGNDQRAHLLPLGIEQLPALKAFDTVFSMGVLYHRRSPLEHLWQLKDQLVNEGELVLETLVIDGDENTVLVPGDRYAQMRNVYFIPSALALKNWLKKCGFVDIRIADVSVTTTEEQRRTEWMVTESLADFLDPHDPGKTVEGYPAPKRAVLIARKP”, for which the “total protein half-life in vivo” value runs as follows: under setting [1], 5.27 ± 0.08 h; under setting [2], 4.888 ± 0.034 h; under setting [3], 5.33 ± 0.13 h; under setting [9], 5.97 ± 1.3 h; under setting [4], 5.36 ± 0.11 h; under setting [10], 3.11 ± 0.086 h. Besides, the “total protein half-life in vivo” value by setting is: under setting [11], 5.84 ± 0.0082 h; under setting [12], 13.1 ± 3.1 h; under setting [5], 5.59 h; under setting [6], 11.6 ± 2.1 h; under setting [7], 5.89 ± 0.94 h; under setting [8], 12.3 ± 0.86 h.
